Patent US20170291939A1 (Novartis, published 2017)

T1: human IL-17A (construct not specified) (human, UniProt Q16552 24-155, limits assumed)
T1 sequence: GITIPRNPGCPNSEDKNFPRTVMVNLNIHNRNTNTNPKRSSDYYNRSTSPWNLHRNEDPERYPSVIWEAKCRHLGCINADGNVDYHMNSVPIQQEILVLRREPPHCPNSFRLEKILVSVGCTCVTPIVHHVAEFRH

T2: recombinant huIL-17A (SEQ ID NO: 76) (human, UniProt Q16552 24-155, limits assumed)
T2 sequence: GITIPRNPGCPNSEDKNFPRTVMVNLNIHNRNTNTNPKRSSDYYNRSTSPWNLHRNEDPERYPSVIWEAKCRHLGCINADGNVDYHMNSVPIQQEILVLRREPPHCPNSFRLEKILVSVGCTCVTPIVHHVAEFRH

T3: recombinant huIL-17A/F heterodimer (human, UniProt Q16552 24-155; Q96PD4 31-163, limits assumed)
T3 sequence (looked up) 1: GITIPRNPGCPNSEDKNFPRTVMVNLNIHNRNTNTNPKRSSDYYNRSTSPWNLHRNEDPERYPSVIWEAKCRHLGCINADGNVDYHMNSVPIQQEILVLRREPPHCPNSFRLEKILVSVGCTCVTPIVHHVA
T3 sequence (looked up) 2: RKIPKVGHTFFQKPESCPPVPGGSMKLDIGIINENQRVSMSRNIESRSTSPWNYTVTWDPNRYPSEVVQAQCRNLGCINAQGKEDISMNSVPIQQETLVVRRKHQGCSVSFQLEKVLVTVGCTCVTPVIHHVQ

T4: recombinant huIL-17F (human, UniProt Q96PD4 31-163)
T4 sequence: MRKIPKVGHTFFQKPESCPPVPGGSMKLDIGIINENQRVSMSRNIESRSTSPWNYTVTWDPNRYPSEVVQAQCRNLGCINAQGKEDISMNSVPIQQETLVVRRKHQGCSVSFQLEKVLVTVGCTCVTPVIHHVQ

T5: recombinant mIL-17A (mouse, UniProt Q62386 26-158)
T5 sequence: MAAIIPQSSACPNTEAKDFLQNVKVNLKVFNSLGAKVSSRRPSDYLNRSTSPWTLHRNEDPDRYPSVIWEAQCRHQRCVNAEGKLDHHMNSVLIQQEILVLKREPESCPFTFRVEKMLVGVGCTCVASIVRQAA

T6: recombinant mIL-17A/F (R&D Systems Cat#5390-IL) (mouse, UniProt Q62386 26-158; Q7TNI7 29-161, limits assumed)
T6 sequence (looked up) 1: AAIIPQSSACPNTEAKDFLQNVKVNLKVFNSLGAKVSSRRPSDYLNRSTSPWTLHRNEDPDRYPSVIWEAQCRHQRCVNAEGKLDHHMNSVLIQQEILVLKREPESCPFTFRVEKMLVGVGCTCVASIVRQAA
T6 sequence (looked up) 2: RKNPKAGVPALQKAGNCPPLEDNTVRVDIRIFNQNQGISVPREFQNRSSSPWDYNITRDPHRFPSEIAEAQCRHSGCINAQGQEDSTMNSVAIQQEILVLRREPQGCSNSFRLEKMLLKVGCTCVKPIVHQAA

T7: rat IL-17A (rat, UniProt Q61453 18-150)
T7 sequence: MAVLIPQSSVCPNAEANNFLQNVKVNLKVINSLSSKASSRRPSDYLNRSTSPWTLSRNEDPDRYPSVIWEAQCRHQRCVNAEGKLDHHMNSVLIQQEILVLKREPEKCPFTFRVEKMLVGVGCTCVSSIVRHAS

T8: recombinant mIL-17F (SEQ ID NO: 84) (mouse, UniProt Q7TNI7 29-161)
T8 sequence: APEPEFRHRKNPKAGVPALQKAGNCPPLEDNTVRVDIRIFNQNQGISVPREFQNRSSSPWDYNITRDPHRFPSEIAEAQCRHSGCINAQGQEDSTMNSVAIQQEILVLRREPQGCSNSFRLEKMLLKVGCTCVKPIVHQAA

T9: cynomolgus IL-17A (cynomolgus monkey, UniProt Q16552 24-155 (human entry), limits assumed)
T9 construct: also called cynoIL-17A; cyno IL-17A
T9 chain: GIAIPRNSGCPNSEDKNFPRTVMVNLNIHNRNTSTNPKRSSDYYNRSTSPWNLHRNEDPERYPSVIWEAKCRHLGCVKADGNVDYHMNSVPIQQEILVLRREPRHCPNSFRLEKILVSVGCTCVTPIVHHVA

T10: recombinant huIL-20 (Novartis) (human) (UniProt Q9NYY1)
T10 sequence (looked up): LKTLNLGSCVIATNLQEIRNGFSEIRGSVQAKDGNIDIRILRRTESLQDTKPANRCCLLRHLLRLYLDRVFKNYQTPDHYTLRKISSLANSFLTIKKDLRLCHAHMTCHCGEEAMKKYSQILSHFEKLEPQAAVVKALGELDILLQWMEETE

B1: XAB4 (antibody, human IgG1, kappa, V domains shown)
VH: EVQLVESGGDLVQPGGSLRLSCAASGFTFSSYWMSWVRQAPGKGLEWVANIKQDGSEKYYVDSVKGRFTISRDNAKNSLYLQMNSLRAEDTAVYYCARDRGSLYYWGQGTLVTVSS
VL: AIQLTQSPSSLSASVGDRVTITCRPSQGINWELAWYQQKPGKAPKLLIYDASSLEQGVPSRFSGSGSGTDFTLTISSLQPEDFATYYCQQFNSYPLTFGGGTKVEIKR
B2: XAB2 (antibody, human IgG1, kappa, V domains shown)
VH: EVQLVESGGDLVQPGGSLRLSCAASGFTFSSYWMSWVRQAPGKGLEWVANIKQDGSEKYYVDSVKGRFTISRDNAKNSLYLQMNSLRAEDTAVYYCARDRGSLYYWGQGTLVTVSS
VL: AIQLTQSPSSLSASVGDRVTITCRPSQVIISALAWYQQKPGKAPKLLIYDASSLEQGVPSRFSGSVSGTDFTLTISSLQPEDFATYYCQQFDSYPLTFGGGTKVEIKR
notes: full IgG
B3: XAB1 (antibody, human IgG1, kappa, V domains shown)
VH: EVQLVESGGDLVQPGGSLRLSCAASGFTFSSYWMSWVRQAPGKGLEWVANIKQDGSEKYYVDSVKGRFTISRDNAKNSLYLQMNSLRAEDTAVYYCARDRGSLYYWGQGTLVTVSS
VL: AIQLTQSPSSLSASVGDRVTITCRPSQGIISALAWYQQKPGKAPKLLIYDASSLENGVPSRFSGSGSGTDFTLTISSLQPEDFATYYCQQFNSYPLTFGGGTKVEIKR

How the values were obtained:
[1] = target: T1, human IL-17A (construct not specified); experiment: cell-based or functional assay
[2] = target: T2, recombinant huIL-17A (SEQ ID NO: 76); experiment: cell-based or functional assay
[3] = target: T3, recombinant huIL-17A/F heterodimer; experiment: cell-based or functional assay
recombinant huIL-17F [4] = target: T4, recombinant huIL-17F; experiment: cell-based or functional assay
[5] = target: T2, recombinant huIL-17A (SEQ ID NO: 76); experiment: cell-based or functional assay; remark: listed apart in the source
[6] = target: T3, recombinant huIL-17A/F heterodimer; experiment: cell-based or functional assay; remark: listed apart in the source
recombinant huIL-17F [7] = target: T4, recombinant huIL-17F; experiment: cell-based or functional assay; remark: listed apart in the source
[8] = target: T2, recombinant huIL-17A (SEQ ID NO: 76); experiment: cell-based or functional assay; remark: listed apart in the source
[9] = target: T2, recombinant huIL-17A (SEQ ID NO: 76); experiment: cell-based or functional assay; remark: listed apart in the source
recombinant mIL-17A [10] = target: T5, recombinant mIL-17A; experiment: cell-based or functional assay
[11] = target: T6, recombinant mIL-17A/F (R&D Systems …); experiment: cell-based or functional assay
rat IL-17A [12] = target: T7, rat IL-17A; experiment: cell-based or functional assay
[13] = target: T8, recombinant mIL-17F (SEQ ID NO: 84); experiment: cell-based or functional assay
recombinant mIL-17A [14] = target: T5, recombinant mIL-17A; experiment: cell-based or functional assay; remark: listed apart in the source
cynomolgus IL-17A = target: T9, cynomolgus IL-17A; experiment: affinity determination (Tables 18-21)
rat IL-17A [15] = target: T7, rat IL-17A; experiment: affinity determination (Tables 18-21)
[16] = target: T10, recombinant huIL-20 (Novartis) (human); experiment: ELISA, coated cytokine, antibody 10 µg/ml

Row | Binder | EC50, T = 0 weeks [1] [ng/mL] | EC50, T = 4 weeks at pH 8, 40° C. (forced deamidation) [1] [ng/ml] | IC50, huIL-6 secretion by BJ cells; rhuIL-17A/F (300 pM) + rhuTNF-α (6 pM) [3] [nM] | IC50, huIL-6 secretion by BJ cells; rhuIL-17F (10 nM) + rhuTNF-α (6 pM) (recombinant huIL-17F [4]) [µM] | IC50, hu-GRO-alpha secretion by BJ cells; IL-17A (30 pM) + TNF-α (6 pM) [5] | IC50, hu-GRO-alpha secretion by BJ cells; IL-17A/F (300 pM) + TNF-α (6 pM) [6] [nM] | IC50, hu-GRO-alpha secretion by BJ cells; IL-17F (10 nM) + TNF-α (6 pM) (recombinant huIL-17F [7]) [µM] | IC50, huIL-6 secretion by BJ cells; rhuIL-17A (0.5 nM) [8] [nM] | IC50, huGROα secretion by BJ cells; rhuIL-17A (0.5 nM) [9] [nM] | IC50, mouse KC secretion by CMT-93 cells; mIL-17A (1 nM) (recombinant mIL-17A [10]) [nM] | IC50, mouse KC secretion by CMT-93 cells; mIL-17A/F (3 nM) [11] [nM] | IC50, mouse KC secretion by CMT-93 cells; rIL-17A (1 nM) (rat IL-17A [12]) [nM] | IC50, mouse KC secretion by CMT-93 cells; mIL-17F (30 nM) [13] [µM] | IC50, KC secretion by CMT-93 cells; mIL-17A (0.15 nM) (recombinant mIL-17A [14]) [nM] | further results
1 | B1 | 48 | 47 | 0.17 | > 3 | 7 pM | 0.1 | > 3 | 0.55 | 0.44 | 13.8 | 10.3 | 6.7 | > 10 | 7 | IC50, huIL-6 secretion by BJ cells; rhuIL-17A (1 nM) [2]: 0.63 nM; IC50, huIL-6 secretion by BJ cells; rhuIL-17A/F (3 nM) [3]: 1.68 nM; IC50, huIL-6 secretion by BJ cells; rhuIL-17F (30 nM) (recombinant huIL-17F [4]): > 3000 nM; IC50, hu-GRO-alpha secretion by BJ cells; IL-17A (1 nM) [5]: 0.35 nM; IC50, hu-GRO-alpha secretion by BJ cells; IL-17A/F (3 nM) [6]: 1.11 nM; IC50, hu-GRO-alpha secretion by BJ cells; IL-17F (30 nM) (recombinant huIL-17F [7]): > 3000 nM
2 | B2 | 45 | 47 |  |  |  |  |  | 0.64 | 0.4 |  |  |  |  | 20.9 | binding result (cynomolgus IL-17A): binds; binding result (rat IL-17A [15]): binds
3 | B3 |  |  | 3.83 | > 3 | 0.72 nM | 6.22 | > 3 | 4.97 | 1.39 | 539 | > 1000 | 467 | > 10 | 128 | IC50, huIL-6 secretion by BJ cells; rhuIL-17A (30 pM) + rhuTNF-α (6 pM) [2]: 0.47 nM; O.D. [16]: 0.335 O.D.
